Source: patent publication US20240391971A1

Molecular target: human GFRAL (UniProtKB-Q6UXV0) (human) (UniProt Q6UXV0)
Test: cell-based or functional assay

human GFRAL, sequence (Q6UXV0 19-394): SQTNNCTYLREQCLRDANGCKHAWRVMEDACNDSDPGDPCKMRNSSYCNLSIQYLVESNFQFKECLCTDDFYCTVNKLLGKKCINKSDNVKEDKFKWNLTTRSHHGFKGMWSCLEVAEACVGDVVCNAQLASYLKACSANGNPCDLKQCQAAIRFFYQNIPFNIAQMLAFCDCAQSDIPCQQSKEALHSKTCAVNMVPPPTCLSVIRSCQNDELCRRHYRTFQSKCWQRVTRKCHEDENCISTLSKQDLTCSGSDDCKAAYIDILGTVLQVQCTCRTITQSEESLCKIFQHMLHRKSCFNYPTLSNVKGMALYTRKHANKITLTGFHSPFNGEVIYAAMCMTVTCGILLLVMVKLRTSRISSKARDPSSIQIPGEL

Relative activity ratio (native GDF15 EC50: Fc-GDF15 construct EC50), ERK1/2 phosphorylation HTRF in HEK293T cells expressing human GFRAL and RET: 1
Substance: native GDF15 (ACROBiosystems, GD5-H5149) (from UniProt Q99988 195-308) (ligand)
